{"source": "patent US7108988B2", "about": "“Methods of identifying agents for inhibiting lentivirus replication” (priority 2001, dated 2006)", "key": {"CyPA [1]": {"target": "T1, CyPA (Homo sapiens, UniProt P62937)", "T1 construct": "purchased Sigma", "assay": "Surface plasmon resonance (BIAcore) binding of Vpr peptides to immobilized recombinant CyPA", "settings": "25° C.; for binding to CyPA: peptide 1 to 250 μM, immobilized recombinant CyPA", "method": "Surface plasmon resonance biosensor analysis (BIAcore-Spectroscopy) was applied to analyze the molecular aspects that govern interaction of Vpr with CyPA. For the first experiment, a novel peptide comprising the first 40 residues of the Vpr protein derived from the isolate HIV-1NL4-3 was used to study the interaction with CyPA.\nSurface plasmon resonance measurements were performed at 25° C. using a BIACORE 2000 (BIAcore AB, Upsala Sweden) equipped with a CM5 research-grade sensor chip. […] The peptide Vpr^1-40 was dissolved at concentrations ranging from 1 to 250 μM in a running buffer (10 mM Hepes, 150 mM NaCl, 50 μM EDTA, 0.005% Tween 20, pH 7.4) and was injected over the flow cells containing CyPA bound to the chip matrix at a flow rate of 5 μl/min. Data were collected at a rate of 2.5 Hz during the 120 s association and dissociation phase. Vpr^1-40 interactions reached equilibrium rapidly and dissociation completely within 30 seconds. Results were corrected by the RU-values of the reference cell (without CyPA) to exclude unspecific binding of Vpr to the chip matrix. The experiment was repeated at least three times with two different charges of peptide and CyPA and reproducible results were obtained.\nSynthetic Vpr^1-40 and mutants carrying Pro to Asn exchanges at either amino acid positions 5, 10 and 14 (P^5,10,14 to N ) or at position 35 (P^35 to N) or at all four positions (P^5,10,14,35 to N) were purified to homogeneity, and tested for binding to immobilized recombinant CyPA using the same surface plasmon resonance biosensor system. […] Thus, among prolines at positions 5, 10, 14, and 35 of Vpr^1-40, only proline-35 is essential for binding to CyPA."}, "CyPA [2]": {"target": "T1, CyPA", "assay": "Far-Western blot binding of Vpr to CyPA bound to nitrocellulose", "method": "Investigation of full length Vpr^1-96 was not possible by BIAcore as the full length Vpr protein tends to undergo self association and protein precipitation, that all together yielded false positive binding signals. As an alternative we investigated the binding of Vpr to CyPA bound to nitrocellulose.\nFor the purpose of Far-Western Blot technique, purified recombinant CyPA was separated in a 15% SDS PAGE at a concentration of ˜150 ng CyPA per lane. Proteins were electro transferred onto nitrocellulose and individual strips of this CyPA-containing Western blot were blocked for 4 hours with 3% BSA in TBS. Strips were then incubated for 12 hrs at 4° C. with the peptide Vpr^1-96 at a concentration of 1 μg/ml, CyPA strips were incubated either in the absence of any detergent, or under more stringent conditions in TBS/T containing 0.5% Triton X100™ non-ionic detergent. Finally, strips were washed tree times in TBS/T for 10 minutes and bound Vpr was identified with anti-Vpr^1-96 (polyclonal antibodies raised in rabbits) followed by anti-rabbit IgG horse radish peroxidase (HRP) conjugate and enhanced chemiluminescence (ECL) staining. As a control, the CypA binding protein, HIV-1 capsid p24 was tested in parallel."}, "CyPA [3]": {"target": "T1, CyPA", "assay": "In vitro CyPA/Vpr complex formation, non-reducing SDS-PAGE and Western blot", "type": "binding", "excerpt": "[…] Proteins were separated on a 14% polyacrylamide gel in SDS (without reducing agents), by PAGE. Proteins were detected by Western blotting after transfer of the proteins from the gel to membranes. CyPA and Vpr proteins were detected using anti-Vpr and anti-CyPA antibodies (Calbiochem)."}}, "data": [{"substance": "P^5,10,14 to N (MEQANEDQGNQRENHNEWTL; Vpr 1-20; UniProt P69725 1-20, looked up, variant P5N P10N P14N)", "values": [{"measurement": "binding to CyPA", "setting": "CyPA [1]", "result": "retained dose-dependent binding to CyPA"}]}, {"substance": "Pro-35 to Asn of Vpr^21-40: Vpr^21-40 with Pro-35 mutated to Asn", "values": [{"measurement": "binding to CyPA", "setting": "CyPA [1]", "result": "complete loss of CyPA binding"}]}, {"substance": "Vpr^1-20: very N-terminal fragment of Vpr", "values": [{"measurement": "binding to CyPA", "setting": "CyPA [1]", "result": "did not bind to CyPA"}]}, {"substance": "Vpr^1-40: peptide comprising the first 40 residues of the Vpr protein derived from the isolate HIV-1NL4-3", "values": [{"measurement": "time to complete dissociation from CyPA", "setting": "CyPA [1]", "result": "≤ 30", "unit": "s"}, {"measurement": "binding to CyPA", "setting": "CyPA [1]", "result": "concentration dependent binding to CyPA"}]}, {"substance": "Vpr^1-96: full length Vpr peptide", "values": [{"measurement": "binding to CyPA (Far-Western)", "setting": "CyPA [2]; 1 μg/ml peptide, absence of detergent", "result": "binds to CyPA"}, {"measurement": "binding to CyPA (Far-Western)", "setting": "CyPA [2]; presence of 0.5% TritonX100 non-ionic detergent", "result": "low affinity"}, {"measurement": "binding to CyPA (Far-Western)", "setting": "CyPA [2]; presence of 0.5% TritonX100 non-ionic detergent, listed as Vpr", "result": "reduced"}, {"measurement": "complex formation with CyPA", "setting": "CyPA [3]; 1 μg each, 22° C., 12 hours, no reducing agent", "result": "formation of a novel approximately 29 kDa product"}, {"measurement": "complex formation with CyPA", "setting": "CyPA [3]; with reducing agent (β-mercaptoethanol)", "result": "loss of the Vpr/CyPA complex"}]}, {"substance": "Vpr^21-40: smaller fragment of Vpr", "values": [{"measurement": "binding to CyPA", "setting": "CyPA [1]", "result": "strong and dose-dependent binding to CyPA"}]}]}
